Assay [1] concerns the target T1, human PD-L1-Fc protein (human, UniProt Q9NZQ7 19-238).
T1 construct: coating antigen of the ELISAs; also called rhPD-L1-Fc; not shown: Fc
Nature of the assay: receptor blocking ELISA: coated human PD-L1-Fc, blocked ligand biotin-labeled human PD-1-Fc (Bio-PD1), OD 450nm; upper left panel (with Hu67F3G7-2). The procedure: (§1) Briefly, microtiter plates were coated with human PD-L1-Fc protein at 0.5 μg/ml in PBS, 100 μl/well at 4° C. overnight, then blocked with 150 μl/well of 1% BSA at 37° C. for 2 hours. […] The plates were washed with PBS/Tween and then incubated with Streptavidin-HRP for 10 mins at 37° C. After washing, the plates were developed with TMB substrate and analyzed by spectrophotometer at OD 450 nm.

Assay [2] addresses T1, human PD-L1-Fc protein. Nature of the assay: receptor blocking ELISA: coated human PD-L1-Fc, blocked ligand biotin-labeled human PD-1-Fc (Bio-PD1), OD 450nm; middle left panel (with Hu67F3G7-5). Here is the method:
as §1
For orientation: ELISA stands for enzyme-linked immunosorbent assay.

The next assay addresses cynomolgus PD-L1 protein (cynomolgus, UniProt G7PSE7 19-238). The experiment in a line: ELISA, coated cynomolgus PD-L1.
In assay [3] the target is T1, human PD-L1-Fc protein. Nature of the assay: ELISA, antibody titrated on coated human PD-L1-Fc, OD 450nm; lower left panel (with Hu67F3G7-13 to -18); the table row is headed 'IC50' on the sheet although the curves rise. The procedure: (§2) To evaluate antigen binding activity, the humanized antibodies were subjected to ELISA test. Briefly, microtiter plates were coated with human PD-L1-Fc protein at 0.5 μg/ml in PBS, 100 μl/well at 4° C. overnight, then blocked with 200 μl/well of 1% BSA. Three-fold dilutions of humanized antibodies starting from 10 μg/ml were added to each well and incubated for 1 hour at 37° C. The plates were washed with PBS/Tween and then incubated with mouse-anti-human IgG Fab antibody conjugated with Horse Radish Peroxidase (HRP) for 1 hour at 37° C. After washing, the plates were developed with TMB substrate and analyzed by spectrophotometer at OD 450 nm.

Assay [4] addresses T1, human PD-L1-Fc protein. The experiment in a line: receptor blocking ELISA: coated human PD-L1-Fc, blocked ligand biotin-labeled human CD80-Fc (Bio-CD80), OD 450nm; middle right panel (with Hu67F3G7-7). Here is the method:
as §1

Assay [5] deals with T1, human PD-L1-Fc protein. Nature of the assay: receptor blocking ELISA: coated human PD-L1-Fc, blocked ligand biotin-labeled human PD-1-Fc (Bio-PD1), OD 450nm; panel with Hu67F3G7-22 [cont'd]. Here is the method:
as §1

Assay [6] addresses T1, human PD-L1-Fc protein. The experiment in a line: receptor blocking ELISA: coated human PD-L1-Fc, blocked ligand biotin-labeled human CD80-Fc (Bio-CD80), OD 450nm; upper left panel (with Hu67F3G7-2). Here is the method:
as §1

Assay [7] deals with T1, human PD-L1-Fc protein. Nature of the assay: ELISA, antibody titrated on coated human PD-L1-Fc, OD 450nm; lower right panel (with Hu67F3G7-19 to -22). The procedure: as §2
In assay [8] the target is T1, human PD-L1-Fc protein. The experiment in a line: receptor blocking ELISA: coated human PD-L1-Fc, blocked ligand biotin-labeled human PD-1-Fc (Bio-PD1), OD 450nm; upper right panel (with Hu67F3G7-3). Here is the method: as §1
In assay [9] the target is T1, human PD-L1-Fc protein. The experiment in a line: ELISA, coated human PD-L1 (PD-L1-Fc per paragraph 110). Here is the method:
Briefly, microtiter plates were coated with human PD-L1-Fc protein at 0.5 μg/ml in PBS, 100 μl/well at 4° C. overnight, then blocked with 150 μl/well of 1% BSA. […] The plates were washed with PBS/Tween and then incubated with Mouse-anti-human IgG Fab antibody conjugated with Horse Radish Peroxidase (HRP) for 30 mins at 37° C. After washing, the plates were developed with TMB substrate and analyzed by spectrophotometer at OD 450 nm.
Briefly, microtiter plates were coated with human, mouse, rat and cynomolgus PD-L1 proteins at 0.5 μg/ml in PBS, 100 μl/well at 4° C. overnight, then blocked with 150 μl/well of 1% BSA. Three-fold dilutions of chimeric antibodies starting from 10 μg/ml were added to each well and incubated for 1 hour at 37° C. The plates were washed with PBS/Tween and then incubate with mouse-anti-human IgG Fab antibody conjugated with Horse Radish Peroxidase (HRP) for 30 mins at 37° C. After washing, the plates were developed with TMB substrate and analyzed by spectrophotometer at OD 450 nm.

The target of assay [10] is T1, human PD-L1-Fc protein. Nature of the assay: receptor blocking ELISA: coated human PD-L1-Fc, blocked ligand biotin-labeled human CD80-Fc (Bio-CD80), OD 450nm; middle left panel (with Hu67F3G7-5). The procedure:
as §1

For the next assay, the target named is mouse PD-L1 protein (mouse, UniProt Q9EP73 19-239). The experiment in a line: ELISA, coated mouse PD-L1.
Sequence of mouse PD-L1 protein (Q9EP73 19-239 limits assumed): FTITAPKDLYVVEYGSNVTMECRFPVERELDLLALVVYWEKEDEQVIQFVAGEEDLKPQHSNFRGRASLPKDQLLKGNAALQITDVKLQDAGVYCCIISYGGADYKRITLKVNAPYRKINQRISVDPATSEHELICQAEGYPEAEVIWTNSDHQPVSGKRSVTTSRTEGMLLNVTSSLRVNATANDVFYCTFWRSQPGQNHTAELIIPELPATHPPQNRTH
Assay [11] deals with T1, human PD-L1-Fc protein. The experiment in a line: receptor blocking ELISA: coated human PD-L1-Fc, blocked ligand biotin-labeled human CD80-Fc (Bio-CD80), OD 450nm; panel with Hu67F3G7-22 [cont'd]. Here is the method: as §1
Assay [12] has as its target T2, human PD-L1 over-expressed on CHOK1 cells (human, UniProt Q9NZQ7 19-290).
T2 construct: whole, on cells; also called PDL1-CHOK1 cells
The experiment in a line: flow cytometry on PDL1-CHOK1 cells. The procedure: After washing by PBS, Alexa Fluor® 647 AffiniPure Goat Anti-Human IgG (H+L) was added to each well and incubated at 4° C. for 30 mins. Samples were washed twice with FACS buffer. The mean florescence intensity (MFI) of Alexa Fluor® 647 was evaluated by FACSCanto.
In general terms: Flow cytometry measures light scatter and fluorescence of single cells or particles in a stream.

In assay [13] the target is T1, human PD-L1-Fc protein. The experiment in a line: receptor blocking ELISA: coated human PD-L1-Fc, blocked ligand biotin-labeled human CD80-Fc (Bio-CD80), OD 450nm; upper right panel (with Hu67F3G7-3). The procedure: as §1

The text below walks through data of patent publication US20230287125A1 (LEPU BIOPHARMA, published 2023).

T1 sequence (Q9NZQ7 19-238 limits assumed): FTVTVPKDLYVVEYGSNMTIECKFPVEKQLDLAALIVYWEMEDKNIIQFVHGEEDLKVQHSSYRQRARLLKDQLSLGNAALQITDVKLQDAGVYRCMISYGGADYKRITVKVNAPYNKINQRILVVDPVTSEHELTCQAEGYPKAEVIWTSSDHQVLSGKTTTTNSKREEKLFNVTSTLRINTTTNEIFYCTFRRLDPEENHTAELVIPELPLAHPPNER
Sequence of cynomolgus PD-L1 protein (G7PSE7 entry or part of it): as the sequence (Q9NZQ7 19-238 limits assumed) above, with A33T, A34S, S62N, R68Q, Q82R, F173L, T185A, T192I, H215L counted along it
T2 sequence (Q9NZQ7 19-290): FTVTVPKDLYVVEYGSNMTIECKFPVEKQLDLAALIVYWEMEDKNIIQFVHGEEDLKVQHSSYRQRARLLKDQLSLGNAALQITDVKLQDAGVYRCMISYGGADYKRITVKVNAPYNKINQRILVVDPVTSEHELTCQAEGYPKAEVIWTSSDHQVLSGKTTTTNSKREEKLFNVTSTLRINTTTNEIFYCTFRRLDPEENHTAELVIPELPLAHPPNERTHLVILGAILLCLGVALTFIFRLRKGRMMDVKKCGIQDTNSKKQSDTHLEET

B1: 67F3G7 chimeric mAb (antibody, V domains shown)
VH: QVKLLQSGAALVKPGASVKMSCKASGYIFTDFWVSWVKQSHEKSLEWIGEIYPNSGVSRYNEKFKGRATMTVDKSTSTAYLELSRLTSEDSAIYYCTKYFGYTYWFGYWGQGTLVTVSS
VL: DTVLTQSPALAVSLGQRITISCRASKSVSTYMHWYQQRSGLQPKLLIYSASHLESGVPSRFSGSGSGTDFTLTIDPVEADDIANYYCQQSNELPVTFGSGTKLEIK
notes: chimeric mAb of the hybridoma clone; also called 67F3G7-chimera
In the case of B1, the IC50 with human PD-L1-Fc protein [1] stood at 0.149 µg/mL; in the assay with human PD-L1-Fc protein [2], 0.149 µg/mL; with human PD-L1-Fc protein [4], 0.283 µg/mL; with human PD-L1-Fc protein [5] it was 0.141 µg/mL; in the assay with human PD-L1-Fc protein [6], 0.256 µg/mL; in the assay with human PD-L1-Fc protein [8] it was 0.136 µg/mL. In addition, the IC50 came out at 0.274 µg/mL with human PD-L1-Fc protein [10], 0.293 µg/mL with human PD-L1-Fc protein [11] and 0.289 µg/mL with human PD-L1-Fc protein [13]. For the same molecule, the EC50 came to 0.0068 µg/mL with cynomolgus PD-L1 protein; 0.0157 µg/mL with human PD-L1-Fc protein [3]; 0.0147 µg/mL with human PD-L1-Fc protein [7]; 0.0108 µg/mL with human PD-L1-Fc protein [9]; 0.103 nM in assay [12]. The binding result with mouse PD-L1 protein is listed as “no binding (tested: dilutions starting from 10 µg/ml)”.

By IC50 is commonly meant the concentration needed to halve the response being measured. As a reminder, the EC50 is the concentration giving half of the maximal effect. Low values mean a more potent agent, high ones a less potent agent.
